# Measured values as given in patent CN1552735A.
# B1: 抗CD44单克隆抗体HI44a (antibody, IgG2a, V domains shown)
# VH: QVKLQESGPGILQPSQTLSLTCSISGFSLNTSGMGVSWIRQPSGKGLEWLAHIYWDDGKRYNPSLKSRLTISKDTSRNQVFLKITSVDTADTGTYYCARRAYGINFAFDYWGQGTTVTVSS
# VL: DIQLTQTAAILSVSPGERVSFSCRTSQSIGTSIHWYHQRTNGSPRLLIKSASESMSGIPSRFSGSGSGTDFTLSINSVESEDIAYYYCQQSNSWPLTFGAGTKLEIKR
# Experiments:
# [1] = target: CD44抗原 (THP-1细胞系表面) (UniProt P16070); experiment: flow cytometry on CD44-positive THP-1 cells, HI44a 20 μl (1 mg/ml) then PBS (positive control), goat anti-mouse IgG-FITC
# [2] = target: CD44抗原 (THP-1细胞系表面) (UniProt P16070); experiment: flow cytometry on THP-1 cells, HI44a 20 μl (1 mg/ml) then competitor anti-CD44 ScFv 100 μl (1 mg/ml), goat anti-mouse IgG-FITC
binder,measurement,setting,value
B1,结合阳性率,[1],51%
same,结合阳性率 (经抗CD44 ScFv竞争后),[2],27.1%
